# From patent publication US20170183639
# Test system: YFP-CD2 (CD2 expressed in LLC-PK1 cells as a yellow fluorescent protein fused protein)
substance,measurement,value
Src kinase of LLC-PK1 cells,basal Src activity measured as Y418 phosphorylation,CD2 expression does increase basal Src activity in this manner as compared with a control cell line
